Experimental data reported in patent publication US20140087436.
Substitutions are numbered along the chain they refer to.

How the values were obtained:
Test in all cases: cell_activity
[1] = target: T1, CbbR A117V (Ralstonia eutropha) (UniProt P42722); conditions: beta-galactosidase, chemoheterotrophic; chemoautotrophic 6793
T1 sequence: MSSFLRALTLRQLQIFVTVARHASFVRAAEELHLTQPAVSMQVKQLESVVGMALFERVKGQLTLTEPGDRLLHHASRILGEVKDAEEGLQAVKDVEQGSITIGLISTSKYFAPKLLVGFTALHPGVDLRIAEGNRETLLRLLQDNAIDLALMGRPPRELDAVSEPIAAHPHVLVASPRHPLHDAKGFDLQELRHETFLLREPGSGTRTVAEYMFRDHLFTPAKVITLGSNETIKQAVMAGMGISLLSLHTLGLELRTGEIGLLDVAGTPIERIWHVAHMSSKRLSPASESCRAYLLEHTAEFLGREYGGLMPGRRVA

[2] = target: T2, CbbR D148N (Ralstonia eutropha) (UniProt P42722); conditions: beta-galactosidase, chemoheterotrophic; chemoautotrophic 6442
T2 sequence: T1 sequence with V117A, D148N

[3] = target: T3, CbbR G125S/V265M (Ralstonia eutropha) (UniProt P42722); conditions: beta-galactosidase, chemoheterotrophic; chemoautotrophic 6770
T3 sequence: T1 sequence with V117A, G125S, V265M

[4] = target: T4, CbbR G205D (Ralstonia eutropha) (UniProt P42722); conditions: beta-galactosidase, chemoheterotrophic; chemoautotrophic 2241
T4 sequence: T1 sequence with V117A, G205D

[5] = target: T5, CbbR G205D/R283H (Ralstonia eutropha) (UniProt P42722); conditions: beta-galactosidase, chemoheterotrophic; chemoautotrophic 4480
T5 sequence: T1 sequence with V117A, G205D, R283H

[6] = target: T6, CbbR L79F (Ralstonia eutropha) (UniProt P42722); conditions: beta-galactosidase, chemoheterotrophic; chemoautotrophic 6840
T6 sequence: T1 sequence with L79F, V117A

[7] = target: T7, CbbR P221S/T299I (Ralstonia eutropha) (UniProt P42722); conditions: beta-galactosidase, chemoheterotrophic; chemoautotrophic 5312
T7 sequence: T1 sequence with V117A, P221S, T299I

[8] = target: T8, CbbR T232A (Ralstonia eutropha) (UniProt P42722); conditions: beta-galactosidase, chemoheterotrophic; chemoautotrophic 5269
T8 sequence: T1 sequence with V117A, T232A

Substance: cbb promoter in lacZ reporter strain
- activity [1]: 254 nmol/min/mg
- activity [2]: 343 nmol/min/mg
- activity [3]: 53 nmol/min/mg
- activity [4]: 488 nmol/min/mg
- activity [5]: 2310 nmol/min/mg
- activity [6]: 218 nmol/min/mg
- activity [7]: 655 nmol/min/mg
- activity [8]: 212 nmol/min/mg
